Substrate in data set [1]: O=c1ccn([C@@H]2O[C@H](COP(=O)(O)O)[C@@H](O)[C@H]2F)c(=O)[nH]1
As to conditions: Homo sapiens.
Description: (§1) Activity at human recombinant thymidylate synthase

Substrate in data set [2]: O=c1ccn([C@H]2C[C@H](O)[C@@H](COP(=O)(O)O)O2)c(=O)[nH]1
Description: as §1
As to conditions: Homo sapiens.

B1: Thymidylate synthase (Homo sapiens), P04818 (protein)
chain: MPVAGSELPRRPLPPAAQERDAEPRPPHGELQYLGQIQHILRCGVRKDDRTGTGTLSVFGMQARYSLRDEFPLLTTKRVFWKGVLEELLWFIKGSTNAKELSSKGVKIWDANGSRDFLDSLGFSTREEGDLGPVYGFQWRHFGAEYRDMESDYSGQGVDQLQRVIDTIKTNPDDRRIIMCAWNPRDLPLMALPPCHALCQFYVVNSELSCQLYQRSGDMGLGVPFNIASYALLTYMIAHITGLKPGDFIHTLGDAHIYLNHIEPLKIQLQREPRPFPKLRILRKVEKIDDFKAEDFQIEGYNPHPTIKMEMAV
The term Km denotes the substrate concentration at which the rate is half of its maximum. For B1, the Km was determined as 12.2 µM in data set [1] and 5.25 µM in data set [2].

(Values after ChEMBL document CHEMBL1144764, “A molecular modeling study of the interaction of 2'-fluoro-substituted analogues of dUMP/FdUMP with thymidylate synthase” (Bioorg Med Chem Lett, 2008).)
